Assay results published in patent US20190389958A1 (MSM PROTEIN TECHNOLOGIES, published 2019).

Assays:
human CXCR4 [1] = molecular target: T1, human CXCR4 (human, UniProt P61073 1-352); test: cell-based or functional assay
human CXCR4 [2] = molecular target: T1, human CXCR4; test: cell-based or functional assay; remark: listed apart in the source
human CXCR4 [3] = molecular target: T1, human CXCR4; test: flow cytometry, IgG 10 µg/mL, CXCR4-expressing Ramos (RA1) cells
Protocol: Binding of test IgGs to CXCR4-expressing human lymphoma cells (Ramos; RA1, ATCC® CRL-1596™) was measured by fluorescent flow cytometry-based assay. Tumor cell staining was conducted as follows: human Fcγ receptors of RA1 cells were saturated by incubation at 4° C. for 30 minutes in PBS containing 2% human serum and 0.5 mM EDTA. Cells were then incubated at 4° C. for one hour with test IgGs or a human isotypic IgG1 kappa control (Coger Sarl, Paris, France) (both antibody types at 10 μg/mL). The cells were washed with PBS and further incubated for one hour at 4° C. with a goat F(ab′)2 fragment anti-human IgG (H+L)-PE (Beckman Coulter). The cells were washed twice with PBS and fixed with 0.5% formaldehyde in PBS for analysis by flow cytometry. The data were acquired using an eleven-color flow cytometer (LSRII, BD Biosciences), and the analyses were performed with the FlowJo flow cytometry analysis software (Tree Star Inc., Ashland, Oreg.). The living cells were selected using the side scatter (SSC) and the forward scatter (FSC); 10,000 events were acquired for each analysis. MFI values were recorded using the PE channel.

human CXCR4 [4] = molecular target: T1, human CXCR4; test: flow cytometry on Cf2-Th cells transfected with human CXCR4, IgG1 format
Protocol: A typical protocol for the fluorescent flow cytometry-based assay was as follows. Ten microliter of a purified test IgG solution or buffer as a control were added to 10 microliter of a suspension containing approximately 30,000 Cf2-Th cells transfected to express human CXCR4. After incubation on ice for 40 min, cells were washed with FACS buffer (phosphate-buffered saline (PBS), pH7.4; 2% fetal calf serum, 0.1% sodium azide) to remove unbound antibodies. Ten microliter of a solution of phycoerythrin (PE)-conjugated mouse anti-human Fc monoclonal antibody (1/20 dilution; catalog number 12-4998-82, eBioscience Inc., San Diego, Calif.) were then added to the cells, and, after a 30-min incubation on ice, cells were washed twice and then formalin-fixed (FIX buffer: PBS, pH7.4; 0.5% formaldehyde). Fixed samples were analysed by fluorescent flow cytometry using a Guava-PCA96 instrument (EMD Millipore Chemicals, Merck KGaA, Darmstadt, Germany).

T1 sequence (P61073 whole entry): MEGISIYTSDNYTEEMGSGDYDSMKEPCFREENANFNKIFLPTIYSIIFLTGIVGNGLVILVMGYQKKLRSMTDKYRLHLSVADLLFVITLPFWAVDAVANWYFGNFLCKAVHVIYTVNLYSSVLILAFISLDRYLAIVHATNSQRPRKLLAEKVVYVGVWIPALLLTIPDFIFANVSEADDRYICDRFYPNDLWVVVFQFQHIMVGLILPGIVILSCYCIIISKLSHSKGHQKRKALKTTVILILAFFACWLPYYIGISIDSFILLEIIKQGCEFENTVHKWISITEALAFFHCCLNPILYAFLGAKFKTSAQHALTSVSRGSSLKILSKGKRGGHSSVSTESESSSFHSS

B1: V62.1-R108H-m43-m38 (antibody, human IgG1, V domains shown)
VH: EVQLLESGGGLVQPGGSLRLSCAASGFTFSSYAMSWVRQAPGKGLEWVSAISGSGGGSTRYADSVKGRFTISRDNSKNTLYLQMNSLRAEDTAVYYCARQGKTRVYGYHWHGYGSTHALDYWGQGTLVTVSS
VL: EIVLTQSPGTLSLSPGERATLSCRASQSVSSSYLAWYQQKPGQAPRLLIYGASSRATGIPDRFSGSGSGTDFTLTISRLEPEDFAVYYCQQWSSDSVTFGQGTKVEIKR
notes: Tested as an IgG (human IgG1 format); also called V62.1-H-m43-m38; IgG1 62.1-R108H-m43-m38
IC50 (nM), inhibition of SDF-1alpha-induced calcium flux (human CXCR4 [1]): 3.8 nM | % Inhibition of SDF-1alpha-induced chemotaxis of U937 cells (IgG at 100 nM) (human CXCR4 [2]): 77% | MFI (human CXCR4 [3]): 488 | EC50 (human CXCR4 [4]): < 10 nM
